Assay results published in patent publication US8535662B2, “Apyrase therapy for bleeding conditions” (Apt Therapeutics, Inc., priority 2010, dated 2013).
Marks after values point to notes of the source that are not given here.

Tests used:
[1] = test system: rats, embolic stroke (thrombus injection into internal carotid artery); assay: Embolic stroke model in rats, apyrase agent with or without r-tPA (Example 1); assay type: in vivo, rat; details: brains at 3 days
Procedure: The following groups were included in this study:
(1) control (saline treated), n=11;
(2) apyrase agent at 0.75 mg/kg, n=4;
(3) apyrase agent at 2.25 mg/kg, n=4;
(4) r-tPA (at 10 mg/kg), n=4;
(5) apyrase agent at 0.75 mg/kg plus r-tPA (10 mg/kg) and
(6) apyrase agent at 2.25 mg/kg plus r-tPA (10 mg/kg) (n=10).
All the treatments were initiated at 2 h following thrombus injection into internal carotid artery. Infarct volume and behavioral deficit were determined at day 3 after the stroke.

[2] = test system: rats, thromboembolic stroke (MCA occlusion); assay: Rat model of thromboembolic stroke (MCA occlusion by preformed clot), apyrase agent plus aspirin (Example 2); assay type: in vivo; details: for Neurological deficits, median (interquartile range 25th to 75th), modified Bederson score: n = 10
Procedure: In this study, four experimental groups were included (n=10):
(1) control, saline injected gastrically;
(2) aspirin, 1.25 mg/kg (equivalent to 100 mg/day dose in human) injected gastrically once a day, starting 3 days prior to middle cerebral artery (MCA) occlusion and also MCA occlusion until the end of each experiment;
(3) apyrase, dose at 0.75 mg/kg injected IV at 2 h after MCA occlusion;
(4) combination group, aspirin and apyrase agent.
In this clinically relevant embolic model, ischemic brain injury was induced by embolizing preformed clots into the middle cerebral artery (MCA). Ten microliters of blood were withdrawn into a catheter and retained for 15 min to allow formation of a clot. Once the clot was formed, the catheter was advanced 17 mm in the ICA until its tip was 1-2 mm away from the origin of the MCA. The preformed clot in the catheter was then injected, and the catheter was removed. […]
Infarct was measured in the brain section stained with 2,3,5-triphenyltetrazolium chloride (TTC) solution. The infarct volume was expressed as a percentage of the total volume from the ipsilateral hemisphere.
Brain swelling (edema) was determined using a formula: edema=(the volume of the right hemisphere—the volume of the left hemisphere)/the volume of the left hemisphere.
Neurological deficits were determined using a modified Bederson's scoring system as following: 0: no observable deficit; 1: forelimb flexion; 2: forelimb flexion plus decreased resistance to lateral push; 3: unidirectional circling; 4: unidirectional circling plus decreased level of consciousness.
Hemorrhagic transformation was quantified by detection of extracellular hemoglobin content in brain homogenates using Drabkin's reagents.

[3] = test system: rats, MCAO suture model with hyperglycemia; assay: Hyperglycemic hemorrhagic transformation in rat focal ischemia (MCAO suture model) (Example 3); assay type: in vivo
Procedure: Focal ischemia was produced using the MCAO (Middle Cerebral Artery Occlusion) suture model in rats. Removal of the suture at 3.5 h after MCAO signaled the beginning of the reperfusion period. Ischemia-reperfusion causes blood extravasation into infracted brain tissues, showing multiple dots, small petechiae and more confluent petechial hemorrhage.
The animals were divided into three groups: […]
Rats were sacrificed at 8 h after MCAO and brains were frozen and cut into 20 μm frozen sections with intervals at 1 mm. The sections were stained with hematoxylin-eosin (HE) or cresyl violet. The H-E staining was used for measurements of hemorrhage rate and hemorrhage volume. The cresyl violet staining was used for quantifying infarct volume and brain swelling. An MCID™ digital image analysis system (Imaging Research, Inc, St. Catherines, Ontario, Canada) was used for quantifying hemorrhage and infarct volume.

[4] = test system: ADP-induced platelet aggregation; assay: Ex vivo ADP-induced platelet aggregation in platelet-rich plasma after dosing rabbits; set-up: species or system rabbit
Text: Blood samples taken at various time points were heparinized.
Data are presented as relative light transmission versus time.

[5] = test system: ADP-induced platelet aggregation; assay: Ex vivo ADP-induced platelet aggregation in platelet-rich plasma in pigs (Example 5); set-up: species or system pig
[6] = test system: dogs, coronary thrombotic occlusion; assay: Canine coronary thrombosis and fibrinolysis model, adjunctive treatment with rtPA (Example 7); assay type: in vivo, dog; details: for decrease of infarct area compared to clopidogrel treatment: percent of left ventricular area or of area-at-risk, 24 hours of reperfusion
Procedure: Thrombotic occlusion was induced by electrical injury to a coronary artery in dogs. […] Buccal mucosa bleeding times, PT, and aPTT were measured as indices of bleeding risk. After 24 hours of reperfusion, infarct size was determined by Evan's blue and triphenyltetrazolium chloride double staining. This protocol is illustrated in FIG. 7.

[7] = test system: C57BL/6J mice, myocardial ischemia; assay: Mouse model of cardiac ischemia/reperfusion injury (Example 8); assay type: in vivo; details: 24 hr reperfusion
Procedure: A mouse model of cardiac ischemia/reperfusion injury was used to determine the effect of apyrase agent on infarct size. Myocardial ischemia was produced in C57BL/6J mice via left anterior coronary artery ligation. Mice were treated with apyrase agent (1 mg/kg, IV) or saline 5 min prior to 60 min of experimentally-induced myocardial ischemia or 50 min after ischemia (n=6-8 per group). After 24 hr of reperfusion, hearts were excised and area at risk and infarct size were determined by Evan's blue and triphenyltetrazolium staining.

[8] = test system: Wistar Furth recipients of Lewis lungs; assay: Allogenic rat lung transplant model, Lewis to Wistar Furth (Example 11); assay type: in vivo; details: rats, 0.66 mg/kg/day IV for 7 days
Procedure: Lewis donor lungs stored for a minimal cold ischemia time of 1 hr were engrafted into allogenic Wistar Furth recipients and treated for 7 days in the following manner:
1. Saline: Received Saline 250 μl/day
2. Apyrase: Received Apyrase agent, 0.66 mg/kg/day IV
3. CyA (standard): Received Cyclosporine A 25 mg/kg/day, IP (standard dose used in previous studies)
4. CyA (low): Received Cyclosporine A 5.0 mg/kg/day, IP (sub optimal dose)
5. CyA (low)+apyrase agent: Received Cyclosporine A 5.0 mg/kg/day, IP and Received apyrase agent, 0.66 mg/kg/day IV
On post-operative day 7 recipients were evaluated for lung graft function by assessing PaO2 (FIG. 10) and then sacrificed and scored blindly for vascular rejection (FIG. 11) using the ISHLT scoring system by a pathologist who routinely evaluates lung allograft rejection. The ISHLT scoring criteria is a scale from where a score of A0 there is no evidence of vascular rejection as in completely syngeneic recipients (e.g., Lewis to Lewis lung transplantation) to A4 as is almost always observed in Lewis to Wistar Furth Recipients. Statistical differences between treatment groups (n=10) were determined by the student t test where significance differences were assessed as p<0.05. Control group for the alloimmune response was the Lewis to Lewis lung transplant combination.

[9] = test system: pigs, coronary injury with stenting; details: pig, in vivo

B1: sol CD39L3 R67G T69R (protein)
chain: EVLPPGLKYGIVLDAGSSGTRVYVYQWPAEKENNTGVVSQTFKCSVKGSGISSYGNNPQDVPRAFEECMQKVKGQVPSHLHGSTPIHLGATAGMRLLRLQNETAANEVLESIQSYFKSQPFDFRGAQIISGQEEGVYGWITANYLMGNFLEKNLWHMWVHPHGVETTGALDLGGASTQISFVAGEKMDLNTSDIMQVSLYGYVYTLYTHSFQCYGRNEAEKKFLAMLLQNSPTKNHLTNPCYPRDYSISFTMGHVFDSLCTVDQRPESYNPNDVITFEGTGDPSLCKEKVASIFDFKACHDQETCSFDGVYQPKIKGPFVAFAGFYYTASALNLSGSFSLDTFNSSTWNFCSQNWSQLPLLLPKFDEVYARSYCFSANYIYHLFVNGYKFTEETWPQIHFEKEVGNSSIAWSLGYMLSLTNQIPAESPLIRLPIEPPV
modifications: glycosylated; synthetically constructed apyrase
- Hemorrhage #/total animals ([1]; apyrase agent 0.75 mg/kg (alone or plus r-tPA 10 mg/kg)): 0/4
- Hemorrhage #/total animals ([1]; apyrase agent 2.25 mg/kg (alone or plus r-tPA 10 mg/kg)): 0/4
- Neurological deficits, median (interquartile range 25th to 75th), modified Bederson score ([2]; 4 h after MCA occlusion): 3
- Neurological deficits, median (interquartile range 25th to 75th), modified Bederson score ([2]; 4 h after MCA occlusion, listed as Apyrase agent): 3 (2-3)
- Neurological deficits, median (interquartile range 25th to 75th), modified Bederson score ([2]; 8 h after MCA occlusion): improved
- Neurological deficits, median (interquartile range 25th to 75th), modified Bederson score ([2]; 8 h after MCA occlusion, listed as Apyrase agent): 2 (2-3)*^
- infarct volume, percentage of the total volume of the ipsilateral hemisphere (mean±SD) ([2]; 24 h after MCA occlusion, aspirin 1.25 mg/kg gastrically once a day from 3 days prior, apyrase 0.75 mg/kg IV at 2 h): 17.89±2.35%
- Neurological deficits, median (interquartile range 25th to 75th), modified Bederson score ([2]; 24 h after MCA occlusion): significantly less severe than the control group
- Neurological deficits, median (interquartile range 25th to 75th), modified Bederson score ([2]; 24 h after MCA occlusion, listed as Apyrase agent): 1.5 (1-2)*
- extracellular hemoglobin content in brain homogenates (hemorrhagic transformation, Drabkin's reagents) ([2]; 24 h after ischemic injury): 0.89±0.08
- brain edema (brain swelling) ([2]; 24 h after ischemic injury, aspirin 1.25 mg/kg, apyrase 0.75 mg/kg IV at 2 h): 6.70±0.93%
- hemorrhage volume in the striatum ([3]; 0.375 mg/kg IV at 3 h after MCAO (30 min before reperfusion), sacrifice at 8 h): 4.8±2.0 mm^3
- neurological function ([3]; 0.375 mg/kg, 4.5 hour after MCAO): significantly improved neurological function
- inhibition of ADP-induced platelet aggregation ([4]; 0.75 mg/kg IV single bolus, 10 mM ADP): more than 95%
- inhibition of ADP-induced platelet aggregation ([4]; 0.75 mg/kg IV, 6 h after dosing): 70%
- time point after dosing at which strong effects were observed (onset of antiplatelet action) ([4]; apyrase agent 0.75 mg/kg IV): 5 min
- persistence of platelet inhibition ([5]; 0.9-2.25 mg/kg IV): at least 5 h
- time after IV injection to >95% inhibition ([5]; 0.9-2.25 mg/kg IV): ≤ 5 min
- inhibition of ADP-induced aggregation ([5]; 0.9-2.25 mg/kg single IV bolus with aspirin and heparin): > 95%
- platelet aggregation by 24 h ([5]; 24 h after dosing): returned to normal
- buccal mucosa bleeding time ([6]; dog, in vivo): no detectable change
- reocclusion ([6]; dogs, apyrase agent at 1 mg/kg): completely prevented reocclusion
- decrease of infarct area compared to clopidogrel treatment ([6]; dogs, high dose (1 mg/kg IV)): 90%
- decrease of infarct area compared to clopidogrel treatment ([6]; dogs, low dose (0.25 mg/kg IV)): 80%
- reduction of infarct size compared to the control group ([7]; 1 mg/kg IV 5 minutes prior to ischemia, 60 min ischemia): approximately 50%
- reduction of infarct size ([7]; 1 mg/kg IV 50 min after ischemia): approximately 50%
- alloimmune responses in lung allograft recipients (PaO2, ISHLT vascular rejection score) [8]: effective at suppressing alloimmune responses
- blood loss from a standardized incision of the abdominal wall [9]: not increased
